Data taken from the supplement of paper PMC7877785.
± gives the uncertainty stated by the source.

Experiment: self-splicing fitness, log relative to wild type (ln ratio); higher = more splicing; Tetrahymena group I intron in knt gene, E. coli kanamycin selection, DiMSum; sequences stand for … in CUCUCU…GGAGGGAAAAGUUAUCAGGCAUGCACCUGGUAGCUAGUCUUUAAACCAAUAGAUUGCAUCGGUUUAAAAGGCAAGACCGUCAAAUUGCGGGAAAGGGGUCAACAGCCGUUCAGUACCAAGUCUCAGGGGAAACUUUGAGAUGGCCUUGCAAAGGGUAUGGUAAUAAGCUGACGGACAUGGUCCUAACCACGCAGCCAAGUCCUAAGUCAACAGAUCUUCUGUUGAUAUGGAUGCAGUUCACAGACUAAAUGUCGGUCGGGGAAGAUGUAUUCUUCUCAUAAGAUAUAGUCGGACCUCUCCUUAAUGGGAGCUAGCGGAUGAAGUGAUGCAACACUGGAGCCGCUGGGAACUAAUUUGUAUGCGAAAGUAUAUUGAUUAGUUUUGGAGUACUCGUGGUCG
Summary of the method: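 Fitness was computed with DiMSum as the error-weighted combination of replicate fold changes, kanamycin versus none, each normalised to wild type. The library randomised all eight intron nucleotides of the P1ex region, with the intron placed in the knt kanamycin-resistance gene on pET-22b(+) in E. coli BL21(DE3). Six replicate transformations were grown overnight at 37°C or 30°C on LB agar with or without 25 μg/mL kanamycin, plus 100 μg/mL carbenicillin, 50 μM IPTG and 0.2% rhamnose. Pooled colonies were amplicon-sequenced on an Illumina HiSeq 2500.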

Row | Sequence | self-splicing fitness (ln) (30 °C) | self-splicing fitness (ln) (37 °C)
1 | ACCAAGCAAUAUUACGUCUG | -2.55 ± 0.1 | -1.02 ± 0.1
2 | ACCAAGCAAUAUUACGUUGA | -2.83 ± 0.12 | -2.01 ± 0.11
3 | ACCCAGCAAUAUUACGAAGU | -0.678 ± 0.058 | 0.183 ± 0.074
4 | ACCCAGCAAUAUUACGACAC | -2.41 ± 0.091 | -0.292 ± 0.083
5 | ACCCAGCAAUAUUACGACGC | 0.24 ± 0.085 | 0.483 ± 0.11
6 | ACCCAGCAAUAUUACGAGGA | -0.706 ± 0.068 | -1.08 ± 0.077
7 | ACCCAGCAAUAUUACGAGUU | -1.14 ± 0.048 | -0.101 ± 0.061
8 | ACCCAGCAAUAUUACGAUGG | -2.94 ± 0.095 | -1.26 ± 0.085
9 | ACCCAGCAAUAUUACGAUUU | -0.881 ± 0.054 | 0.0888 ± 0.069
10 | ACCCAGCAAUAUUACGCACG | -1.86 ± 0.067 | -1.01 ± 0.084
11 | ACCCAGCAAUAUUACGCCAG | -3.26 ± 0.21 | -2.55 ± 0.33
12 | ACCCAGCAAUAUUACGCUAU | -0.847 ± 0.066 | -0.75 ± 0.08
13 | ACCCAGCAAUAUUACGCUGG | -2.83 ± 0.14 | -2.4 ± 0.18
14 | ACCCAGCAAUAUUACGGACA | -0.0478 ± 0.08 | -0.181 ± 0.089
15 | ACCCAGCAAUAUUACGGCUC | -1.46 ± 0.058 | -0.423 ± 0.073
16 | ACCCAGCAAUAUUACGGCUU | -0.338 ± 0.071 | 0.053 ± 0.089
17 | ACCCAGCAAUAUUACGGGAC | -2.71 ± 0.1 | -1.54 ± 0.1
18 | ACCCAGCAAUAUUACGGGAU | -2.6 ± 0.085 | -1.01 ± 0.076
19 | ACCCAGCAAUAUUACGGGUU | -4.18 ± 0.12 | -2.84 ± 0.13
20 | ACCCAGCAAUAUUACGUCCC | -1.18 ± 0.16 | -0.981 ± 0.17
21 | ACCCAGCAAUAUUACGUCUC | -1.89 ± 0.078 | -0.796 ± 0.094
22 | ACCCAGCAAUAUUACGUGGC | -2.83 ± 0.13 | -1.69 ± 0.11
23 | ACCCAGCAAUAUUACGUGUU | -1.45 ± 0.047 | -0.111 ± 0.061
24 | ACCGAGCAAUAUUACGAACA | -3.15 ± 0.47 | -1.43 ± 0.17
